Test results reported in publication doi:10.1101/2021.03.03.433707 (bioRxiv, 2021).

B5: ParC, full length (enzyme, E. coli, UniProt P0AFI2 1-752, looked up)
chain: MSDMAERLALHEFTENAYLNYSMYVIMDRALPFIGDGLKPVQRRIVYAMSELGLNASAKFKKSARTVGDVLGKYHPHGDSACYEAMVLMAQPFSYRYPLVDGQGNWGAPDDPKSFAAMRYTESRLSKYSELLLSELGQGTADWVPNFDGTLQEPKMLPARLPNILLNGTTGIAVGMATDIPPHNLREVAQAAIALIDQPKTTLDQLLDIVQGPDYPTEAEIITSRAEIRKIYENGRGSVRMRAVWKKEDGAVVISALPHQVSGARVLEQIAAQMRNKKLPMVDDLRDESDHENPTRLVIVPRSNRVDMDQVMNHLFATTDLEKSYRINLNMIGLDGRPAVKNLLEILSEWLVFRRDTVRRRLNYRLEKVLKRLHILEGLLVAFLNIDEVIEIIRNEDEPKPALMSRFGLTETQAEAILELKLRHLAKLEEMKIRGEQSELEKERDQLQGILASERKMNNLLKKELQADAQAYGDDRRSPLQEREEAKAMSEHDMLPSEPVTIVLSQMGWVRSAKGHDIDAPGLNYKAGDSFKAAVKGKSNQPVVFVDSTGRSYAIDPITLPSARGQGEPLTGKLTLPPGATVDHMLMESDDQKLLMASDAGYGFVCTFNDLVARNRAGKALITLPENAHVMPPVVIEDASDMLLAITQAGRMLMFPVSDLPQLSKGKGNKIINIPSAEAARGEDGLAQLYVLPPQSTLTIHVGKRKIKLRPEELQKVTGERGRRGTLMRGLQRIDRVEIDSPRRASSGDSEE

Legend:
ParC, full length [1] = target: B5; assay: ITC
ParC, full length [2] = target: B5; assay: native MS
native MS = target: the molecule itself; assay: native MS
ParC, full length [3] = target: B5; assay: SEC
[4] = target: T1, MukB, full length, wild type (E. coli, UniProt P22523 1-1486); assay: fluorescence correlation spectroscopy
T1 sequence (looked up): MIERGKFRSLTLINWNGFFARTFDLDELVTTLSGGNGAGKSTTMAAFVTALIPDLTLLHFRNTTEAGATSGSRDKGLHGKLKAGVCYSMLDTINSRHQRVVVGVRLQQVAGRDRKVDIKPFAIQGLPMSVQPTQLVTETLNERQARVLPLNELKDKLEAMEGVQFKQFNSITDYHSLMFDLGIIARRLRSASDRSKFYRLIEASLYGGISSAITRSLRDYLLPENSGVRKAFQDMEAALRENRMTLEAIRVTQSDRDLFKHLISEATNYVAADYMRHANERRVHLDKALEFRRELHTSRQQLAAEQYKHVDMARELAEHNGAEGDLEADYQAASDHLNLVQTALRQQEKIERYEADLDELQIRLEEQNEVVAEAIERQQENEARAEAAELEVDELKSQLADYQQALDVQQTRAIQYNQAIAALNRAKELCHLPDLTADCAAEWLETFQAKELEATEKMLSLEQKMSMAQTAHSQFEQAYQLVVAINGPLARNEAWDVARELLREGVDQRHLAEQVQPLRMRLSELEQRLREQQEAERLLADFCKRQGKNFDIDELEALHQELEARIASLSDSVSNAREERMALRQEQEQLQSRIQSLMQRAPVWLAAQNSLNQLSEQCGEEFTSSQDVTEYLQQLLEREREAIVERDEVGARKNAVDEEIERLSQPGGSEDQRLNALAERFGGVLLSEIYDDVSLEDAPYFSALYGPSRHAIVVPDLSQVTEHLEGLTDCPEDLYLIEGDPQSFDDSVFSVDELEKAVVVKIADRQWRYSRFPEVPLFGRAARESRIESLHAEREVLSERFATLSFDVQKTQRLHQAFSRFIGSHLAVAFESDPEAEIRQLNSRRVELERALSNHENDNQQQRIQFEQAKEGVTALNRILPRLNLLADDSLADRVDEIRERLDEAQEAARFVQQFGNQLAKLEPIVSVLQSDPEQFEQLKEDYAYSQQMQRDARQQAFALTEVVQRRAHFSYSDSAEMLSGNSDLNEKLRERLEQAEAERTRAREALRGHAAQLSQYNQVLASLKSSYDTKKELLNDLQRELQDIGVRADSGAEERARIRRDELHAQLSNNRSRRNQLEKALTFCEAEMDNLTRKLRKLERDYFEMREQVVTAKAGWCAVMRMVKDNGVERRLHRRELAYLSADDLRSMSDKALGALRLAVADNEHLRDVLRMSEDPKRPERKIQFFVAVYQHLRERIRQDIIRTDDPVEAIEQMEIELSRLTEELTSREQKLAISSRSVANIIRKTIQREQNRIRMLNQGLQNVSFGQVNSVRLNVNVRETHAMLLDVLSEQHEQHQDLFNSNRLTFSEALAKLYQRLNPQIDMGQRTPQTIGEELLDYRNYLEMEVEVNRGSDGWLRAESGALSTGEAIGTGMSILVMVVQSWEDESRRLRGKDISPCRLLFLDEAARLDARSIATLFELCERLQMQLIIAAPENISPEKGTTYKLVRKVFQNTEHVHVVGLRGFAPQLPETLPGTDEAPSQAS

B1: MukB long hinge (LH, 568-863) (domain or fragment, E. coli, UniProt P22523 568-863, looked up)
chain: SLSDSVSNAREERMALRQEQEQLQSRIQSLMQRAPVWLAAQNSLNQLSEQCGEEFTSSQDVTEYLQQLLEREREAIVERDEVGARKNAVDEEIERLSQPGGSEDQRLNALAERFGGVLLSEIYDDVSLEDAPYFSALYGPSRHAIVVPDLSQVTEHLEGLTDCPEDLYLIEGDPQSFDDSVFSVDELEKAVVVKIADRQWRYSRFPEVPLFGRAARESRIESLHAEREVLSERFATLSFDVQKTQRLHQAFSRFIGSHLAVAFESDPEAEIRQLNSRRVELERALSNHENDNQQQR
Kd (ParC, full length [1]): 690 nM
dH (ParC, full length [1]): -7.48 kcal/mol
stoichiometry N (ParC, full length [1]): 0.84
stoichiometry N (ParC, full length [2]): 1 ParC dimer per LH dimer
stoichiometry N (native MS): 2

B2: MatP^4A (K71A, Q72A, R75A and R77A) (domain or fragment, E. coli, UniProt P0A8N0 1-132, looked up)
chain: MKYQQLENLESGWKWKYLVKKHREGELITRYIEASAAQEAVDVLLSLENEPVLVNGWIDKHMNPELVNRMAATIAAARKRHFNAEHQHTRKKSIDLEFIVWQRLAGLAQRRGKTLSETIVQLIEDAENKEKY
stoichiometry N (native MS): 2

B3: MatP^4E (K71E, Q72E, R75E and R77E) (domain or fragment, E. coli, UniProt P0A8N0 1-132, looked up)
chain: MKYQQLENLESGWKWKYLVKKHREGELITRYIEASAAQEAVDVLLSLENEPVLVNGWIDKHMNPELVNRMEETIEAERKRHFNAEHQHTRKKSIDLEFIVWQRLAGLAQRRGKTLSETIVQLIEDAENKEKY
stoichiometry N (native MS): 2

B4: ParE-His (enzyme, E. coli, UniProt P20083 1-630, looked up)
chain: MTQTYNADAIEVLTGLEPVRRRPGMYTDTTRPNHLGQEVIDNSVDEALAGHAKRVDVILHADQSLEVIDDGRGMPVDIHPEEGVPAVELILCRLHAGGKFSNKNYQFSGGLHGVGISVVNALSKRVEVNVRRDGQVYNIAFENGEKVQDLQVVGTCGKRNTGTSVHFWPDETFFDSPRFSVSRLTHVLKAKAVLCPGVEITFKDEINNTEQRWCYQDGLNDYLAEAVNGLPTLPEKPFIGNFAGDTEAVDWALLWLPEGGELLTESYVNLIPTMQGGTHVNGLRQGLLDAMREFCEYRNILPRGVKLSAEDIWDRCAYVLSVKMQDPQFAGQTKERLSSRQCAAFVSGVVKDAFILWLNQNVQAAELLAEMAISSAQRRMRAAKKVVRKKLTSGPALPGKLADCTAQDLNRTELFLVEGDSAGGSAKQARDREYQAIMPLKGKILNTWEVSSDEVLASQEVHDISVAIGIDPDSDDLSQLRYGKICILADADSDGLHIATLLCALFVKHFRALVKHGHVYVALPPLYRIDLGKEVYYALTEEEKEGVLEQLKRKKGKPNVQRFKGLGEMNPMQLRETTLDPNTRRLVQLTIDDEDDQRTDAMMDMLLAKKRSEDRRNWLQEKGDMAEIEV
binding result (ParC, full length [3]): binds

B5
fold decrease in MatP-Cy3B binding to MukB at a 10-fold excess of competitor [4]: 3 fold
